# Measured values reported in US20230265192A1 (GIGAGEN, published 2023).
# Where a chain is given by its changes, count along the chain named.
# B1: antibody A13 (L13H13) (antibody, V domains shown)
# VH: QVQLVESGGGVVQPGRSLRLSCAASGFTFSSYGMHWVRQAPGKGLEWVAVIWYDGRNKDYADSVKGRITISRDNSKNTLYLQMNSLRAEDTAVYYCARGGLLGPYFDYWGQGTLVTVSS
# VL: not shown
# notes: also called aCTLA-4.14
# B2: antibody A4 (L4H4) (antibody, V domains shown)
# VH: QVQLVESGGGVVQPGRSLRISCAASGFTFSSYGIHWVRQAPGKGLQWVAVIWYDGRNKYYADSVKGRFTISRDNSKNTLYLQMNSLRAEDTAVYYCSRSGSFGAFDIWGQGTMVTVSS
# VL: EIVLTQSPGTLSLSPGDRATLSCRASQSGSSSYLAWYQQKPGQAPRLLIYGASSRATGIPDRFSGSGSGTDFTLTISRLEPEDFAVYYCQQYGTSPFTSGPGTKVDIK
# notes: also called aCTLA-4.29
# B3: antibody A11 (L11H11) (antibody, V domains shown)
# VH: QVQLVESGGGVVQPGRSLRLSCAASGFTFSSYGMHWVRQAPGKGLEWVAVIWYDVGNKYYIDSVKGRFTISRDNSKNTLYLQMNSLRAEDTAVYYCARDYYGSGSPRHFDYWGQGTLVTVSS
# VL: DIQLTQSPSFLSASVGDRVTITCRASQGISSYLAWYQQKPGKAPKLLIYAASTLQSGVPSRFSGSGSGTEFTLTISSLQPEDFATYYCQQLNSYPPTFGQGTKVEIK
# notes: also called aCTLA-4.31
# B4: antibody A6 (L6H6) (antibody, V domains shown)
# VH: QVQLVESGGGVVQPGRSLRLSCAASGFTFSSYGMHWVRQAPGKGLEWVAVIWYDGSYKYYADSVKGRFTISRDDSKNTLYLQMSSLRAEDTAVYYCARAPHYAILTGYYEDYWGQGTLVTVSS
# VL: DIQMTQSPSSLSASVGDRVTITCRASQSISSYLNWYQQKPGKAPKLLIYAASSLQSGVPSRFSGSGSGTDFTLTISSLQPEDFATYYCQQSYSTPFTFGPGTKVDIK
# B5: Ipilimumab analog (antibody, V domains shown)
# VH: QVQLVESGGGVVQPGRSLRLSCAASGFTFSSYTMHWVRQAPGKGLEWVTFISYDGNNKYYADSVKGRFTISRDNSKNTLYLQMNSLRAEDTAIYYCARTGWLGPFDYWGQGTLVTVSS
# VL: not shown
# notes: also called ipi analog; in-house produced ipilimumab
# B6: antibody A14 (L14H14), GIGA-564 (antibody, V domains shown)
# VH: QVQLVESGGGVVQPGRSLRLSCAASGFTFSSYGMHWVRQAPGTGLEWVAVIWYEGRNKYYADPVKGRFTISRDNSKNTLYLQMNSLRDDDTAVYYCARAGDLGAFDIWGQGTMVTVSSA
# VL: not shown
# notes: also called aCTLA-4.15
# B7: antibody A12 (L12H12) (antibody, V domains shown)
# VH: QVQLVESGGGVVQPGRSLRLSCAASGFTFSSYGMHWVRQAPGKGLEWVAVIWYDGSNKYYADSVKGRFTFSRDNSKNTLYLQMNSLRAEDTAVYYCARGGLMGAFDYWGQGTLVTVSS
# VL: not shown
# notes: also called aCTLA-4.12; CTLA4.A12
# B8: antibody A18 (L18H18) (antibody, V domains shown)
# VH: B7 VH with Y59F, F70I, R72S, L101H, M102L, A104S
# VL: EIVLTQSPGTLSLSPGERATLSCRASQSVSYLAWYQQKPGQAPRLLIYGASSRATGIPDRFSGSGSGTDFTLTISRLEPEDFAVYYCQQYGSSPWTFGQGTKVEIK
# notes: also called aCTLA-4.11
# Biological target: T1, His-tagged cynomolgus CTLA-4 (CT4-C5227; Acro Biosystems) (cynomolgus, UniProt G7PL88 36-161)
# T1 construct: also called soluble cynomolgus CTLA-4; cyno CTLA-4
# T1 sequence (G7PL88 entry or part of it limits assumed, form in doubt): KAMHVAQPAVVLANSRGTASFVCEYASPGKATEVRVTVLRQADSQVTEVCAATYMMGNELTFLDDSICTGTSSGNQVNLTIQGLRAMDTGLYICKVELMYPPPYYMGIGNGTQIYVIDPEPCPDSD
# Test: BLI (Octet)
# Experimental: (§1) The binding specificity and affinity of each full-length antibody towards CTLA-4 were determined using biolayer interferometry (BLI) and/or surface plasmon resonance (SPR). Anti-cyno CTLA-4 and anti-mouse CTLA-4 affinities were tested using ForteBio (BLI). Anti-human CTLA-4 affinities were measured using Carterra (SPR).
# (§2) For BLI, antibodies were loaded onto an Anti-Human IgG Fc (AHC) biosensor using the Octet Red96 system (ForteBio). Loaded biosensors were dipped into antigen dilutions beginning at 300 nM, with 6 serial dilutions at 1:3. Kinetic analysis was performed using a 1:1 binding model and global fitting.
row,Kd [nM],Binder
1,9.6,B1
2,1.2,B2
3,1.6,B3
4,1.6,B4

# Biological target: mouse CTLA-4 (mouse, UniProt P09793 36-161, limits assumed)
# Sequence (P09793 36-161 limits assumed): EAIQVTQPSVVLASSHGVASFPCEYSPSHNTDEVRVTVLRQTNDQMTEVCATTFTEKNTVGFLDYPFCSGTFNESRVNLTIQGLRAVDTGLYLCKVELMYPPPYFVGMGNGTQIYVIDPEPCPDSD
# Test: BLI (Octet)
# Experimental: as §1, §2
binding result,Kd [nM],Binder
no binding (tested: 300 nM),–,B5
no binding (tested: 300 nM),–,B2
no binding (tested: 300 nM),–,B3
–,87.8,B4

# Biological target: T2, His-tagged human CTLA-4 (CT4-H5229; Acro Biosystems) (human, UniProt P16410 36-161)
# T2 construct: bought soluble protein; also called soluble human CTLA-4; recombinant human CTLA-4; not shown: His tag
# T2 sequence (P16410 36-161 limits assumed): as the sequence (G7PL88 entry or part of it limits assumed, form in doubt) above, with N14S, T18I, M106L counted along it
# Test: SPR (Carterra)
# Experimental: (§3) Then, goat anti-Human IgG Fc (Southern Biotech 2047-01) was coupled for 10 minutes at […] in 10 mM Sodim Acetate pH 4.5 (Carterra Inc.). The surface was then deactivated with 1 M ethanolamine pH 8.5 (Carterra Inc.). Running buffer used for the lawn immobilization was HBS-EPC (10 mM HEPES, 150 mM NaCl, 3 mM EDTA, 0.05% Tween 20, pH 7.4; Teknova).
# (§4) The sensor chip was then transferred to a continuous flow microspotter (CFM; Carterra Inc.) for array capturing. The mAb supernatants were diluted 50-fold ([…] final concentration) into HBS-EPC with 1 mg/mL BSA. The samples were each captured twice with 15-minute and 4-minute capture steps on the first and second prints, respectively, to create multiple densities, using a […] flow rate. The running buffer in the CFM was also HBS-EPC.
# (§5) Next, the sensor chip was loaded onto an SPR reader (MX-96 system; Ibis Technologies) for the kinetic analysis. CTLA-4 was injected at five increasing concentrations in a four-fold dilution series with concentrations of 1.95, 7.8, 31.25, 125, and 500 nM in running buffer (HBS-EPC with 1.0 mg/mL BSA). CTLA-4 injections were 5 minutes with a 15-minute dissociation at […] in a non-regenerative kinetic series. An injection of the goat anti-Human IgG Fc capture antibody at […] was injected at the end of the series to verify the capture level of each mAb. Binding data was double referenced by subtracting an interspot surface and a blank injection and analyzed for ka (on-rate), kd (off-rate), and KD (affinity) using the Kinetic Interaction Tool software (Carterra Inc.).
row,Kd [nM],Binder
1,3.2,B1
2,3,B2
3,7.5,B3
4,5.7,B4

# Biological target: T2, His-tagged human CTLA-4 (CT4-H5229; …)
# Test: SPR (Carterra)
# Remark: another data set of the same source
# Experimental: as §3, §4, §5
Kd [nM],koff [s⁻¹],kon [M⁻¹ s⁻¹],Binder
3.2,0.00042,130000,B1
3,0.00023,76000,B2
7.5,0.00035,47000,B3
5.7,0.00035,61000,B4

# Biological target: T3, human CTLA-4 expressed on the cell surface (human, UniProt P16410 36-223)
# T3 sequence (P16410 36-223 limits assumed): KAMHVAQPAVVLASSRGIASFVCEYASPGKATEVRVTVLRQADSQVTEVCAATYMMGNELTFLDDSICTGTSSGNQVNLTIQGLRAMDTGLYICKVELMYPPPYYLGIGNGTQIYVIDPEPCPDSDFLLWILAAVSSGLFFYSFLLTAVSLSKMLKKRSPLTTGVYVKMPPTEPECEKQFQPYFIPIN
# Test: cell-based or functional assay
Promega assay % inhibition [%],"Promega assay antagonist (EC50, ug/mL) [µg/mL]",Binder
13.3,0.09,B1
81,0.15,B2
26.6,0.42,B3
61.7,0.18,B4

# Biological target: T3, human CTLA-4 expressed on the cell …
# Test: cell-based or functional assay
# Remark: another data set of the same source
Cell-based blocking activity EC50 [µg/mL],Cell-based blocking activity max signal (RLU),Binder
0.09,73,B1
0.15,444,B2
0.18,338,B4

# Biological target: T2, His-tagged human CTLA-4 (CT4-H5229; …)
# Test: SPR (Carterra), soluble human CTLA-4
Kd [nM],koff [s⁻¹],kon [M⁻¹ s⁻¹],Binder
3.2,0.00042,130000,B1
3,0.00023,76000,B2
5.7,0.00035,61000,B4

# Biological target: T1, His-tagged cynomolgus CTLA-4 …
# Test: BLI (Octet), single antigen concentration
# Experimental: (§6) Table 23. In vitro characterization of scFvs reformatted as full-length antibodies. kon, koff, and KD of the indicated CTLA-4 mAbs for soluble human CTLA-4 was determined by SPR (Carterra). Geometric MFI of the indicated CTLA-4 mAbs bound to CTLA-4⁺ or CD27⁺ CHO cells as detected by a secondary human IgG antibody and flow cytometry. Affinity (KD) of the indicated CTLA-4 mAbs for soluble cynomolgus CTLA-4 was determined by a single antigen concentration BLI measurement (Octet). […] Due to constraints on sample size in each Promega bioassay kit, this set of aCTLA-4 mAbs was analyzed using multiple plates (plate letters correspond to Plate A-D in FIG. 20D).
# Antibodies were loaded at 5 μg/mL onto Protein A biosensors that were dipped into 80 nM antigen, and kinetic constants were calculated using a monovalent model.
row,Kd [nM],Binder
1,9.6,B1
2,1.2,B2
3,1.6,B4

# Biological target: T3, human CTLA-4 expressed on the cell …
# Test: flow cytometry, 10 µg/mL mAb, geometric MFI
# Experimental: as §6
# (§7) To determine if the CTLA-4 mAbs bound the appropriate antigen expressed on the surface of mammalian cells, CHO cell lines stably expressing human CTLA-4 or an irrelevant antigen (CD27) were generated. Cells (0.5×10⁶ each cell line) were combined and washed with MACS buffer (Dulbecco's Phosphate Buffered Saline [DPBS], with 0.5% bovine serum albumin [BSA], and 2 mM ethylenediaminetetraacetic acid [EDTA]). The cells were incubated with 10 μg/mL anti-CTLA-4 for 30 min at 4° C., then excess, unbound mAbs were removed by washing twice with MACS buffer. The cells were then stained with PE-conjugated anti-Human IgG Fc antibody (clone M1310G05, BioLegend 410720, San Diego, Calif., USA) to detect bound anti-CTLA-4 and with fluorescein isothiocyanate (FITC)-conjugated anti-CD27 (clone 0323, BioLegend 302806, San Diego, Calif., USA) to distinguish the cells expressing the irrelevant antigen. Cells were washed twice with MACS buffer, fixed with 4% paraformaldehyde fixation buffer (BioLegend 420801, San Diego, Calif., USA) for 20 minutes at room temperature and washed twice more with MACS buffer.
row,MFI of CTLA-4+ CHO cells,Binder
1,1024,B1
2,999,B2
3,717,B6
4,939,B4

# Biological target: T4, CD27 on CHO cells (UniProt P26842 20-260, limits assumed)
# T4 construct: whole, on cells; also called CD27+ CHO cells; irrelevant antigen (CD27)
# T4 sequence (P26842 20-260 limits assumed): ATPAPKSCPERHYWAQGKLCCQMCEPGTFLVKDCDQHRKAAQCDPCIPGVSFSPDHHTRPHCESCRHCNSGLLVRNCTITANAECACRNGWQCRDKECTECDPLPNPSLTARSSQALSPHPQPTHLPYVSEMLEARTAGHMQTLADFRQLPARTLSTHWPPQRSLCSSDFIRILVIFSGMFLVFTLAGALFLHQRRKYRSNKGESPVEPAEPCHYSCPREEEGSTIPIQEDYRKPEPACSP
# Test: flow cytometry, 10 µg/mL mAb, geometric MFI
# Experimental: as §6, §7
row,MFI of CD27+ CHO cells,Binder
1,17.1,B7
2,14.8,B8
3,17,B1
4,16.3,B2
5,15.9,B6
6,17.8,B4

# Biological target: T4, CD27 on CHO cells
# Test: flow cytometry, mixed CTLA-4+ and CD27+ CHO cells
# Experimental: To determine if the CTLA-4 mAbs bound the appropriate antigen expressed on the surface of mammalian cells, CHO cell lines stably expressing human CTLA-4 or an irrelevant antigen (CD27) were generated. Cells (0.5×10⁶ each cell line) were combined and washed with MACS buffer (Dulbecco's Phosphate Buffered Saline [DPBS], with 0.5% bovine serum albumin [BSA], and 2 mM ethylenediaminetetraacetic acid [EDTA]). The cells were incubated with 10 μg/mL anti-CTLA-4 for 30 min at 4° C., then excess, unbound mAbs were removed by washing twice with MACS buffer. The cells were then stained with PE-conjugated anti-Human IgG Fc antibody (clone M1310G05, BioLegend 410720, San Diego, Calif., USA) to detect bound anti-CTLA-4 and with fluorescein isothiocyanate (FITC)-conjugated anti-CD27 (clone 0323, BioLegend 302806, San Diego, Calif., USA) to distinguish the cells expressing the irrelevant antigen. Cells were washed twice with MACS buffer, fixed with 4% paraformaldehyde fixation buffer (BioLegend 420801, San Diego, Calif., USA) for 20 minutes at room temperature and washed twice more with MACS buffer. […] Binding of mAbs to CTLA-4 on the cell surface was determined using LSR II (BD Biosciences, San Jose, Calif., USA) or CytoFLEX LX (Beckman Coulter, Brea. Calif., USA) flow cytometers and analyzed using FlowJo (v10.6.1, BD Biosciences, San Jose, Calif., USA).
row,binding result,Binder
1,no binding (tested: 10 µg/mL),B7
2,no binding (tested: 10 µg/mL),B8
3,no binding (tested: 10 µg/mL),B1
4,no binding (tested: 10 µg/mL),B2
5,no binding (tested: 10 µg/mL),B6
6,no binding (tested: 10 µg/mL),B4
